# Article PMC3099344 (Structure (London, England : 1993), 2011)
# Columns and labels:
# AUC = target: the molecule itself; test: AUC
# crystal structure = target: the molecule itself; test: crystal structure
Protein,Kd (AUC),binding result (crystal structure)
"M. musculus Mesd structured domain (mmMesdSD) (domain or fragment, Mus musculus) GSHMTKKGKTLMMFVTVSGNPTEKETEEITSLWQGSLFNANYDVQRFIVGSDRAIFMLRDGSYAWEIKDFLVSQDRCAEVTLEGQMYPG",276 ± 13.8 µM,
"D. melanogaster Boca conserved core (dmBocaCC) (domain or fragment, Drosophila melanogaster) GSHMKKDIRDYSEADLERLLDQWEEDEEPLEDDELPEHLRPQPKLDLSNLDSKSPEDLLKVSKKGRTLMTFVSVTGNPTREESDTITKLWQTSLWNNHIQAERYMVDDNRAIFLFKDGTQAWDAKDFLIEQERCKGVTIENKEYPG",155 ± 4.6 µM,
"D. melanogaster Boca structured domain (dmBocaSD) (domain or fragment, Drosophila melanogaster) GSQKHMSKKGRTLMTFVSVTGNPTREESDTITKLWQTSLWNNHIQAERYMVDDNRAIFLFKDGTQAWDAKDFLIEQERCKGVTIENKEYPG",77 ± 3.1 µM,
"Selenomethionyl D. melanogaster Boca structured domain (SeMet dmBocaSD) (domain or fragment, Drosophila melanogaster, selenomethionyl (SeMet) protein) GSQKHMSKKGRTLMTFVSVTGNPTREESDTITKLWQTSLWNNHIQAERYMVDDNRAIFLFKDGTQAWDAKDFLIEQERCKGVTIENKEYPG",,binds
